The assay addresses mutated SMN1 protein with T274YfsX32, myc-tagged (exogenous) (human) (UniProt Q16637). Kind of assay: co-IP; lysate (1 mg) of HeLa cells 24 h after transfection, RIPA buffer without SDS; anti-myc-tag antibody on Dynabeads Protein A; washed three times; blots with anti-myc-tag and anti-SMN antibodies; band ratio End-SMN/Exo-SMN, in triplicate.

For the substance “endogenous FL-SMN1 and/or FL-SMN2 protein (endogenous SMN protein) (from UniProt Q16637 1-294) (natural protein)”, the ratio of End-SMN to Exo-SMN came to 0.02 and the ratio of End-SMN/Exo-SMN, percent of wild type amounted to 4%.

(Values after paper PMC8872419.)
